Measurements reported in US20110318348A1 (NATIONAL RESEARCH COUNCIL OF CANADA, published 2011).

Tests used:
[1] = target: T1, bovine serum albumin (bovine, UniProt P02769 25-607); assay: SPR (Biacore 3000), BSA immobilized on CM5, 1:1 model; SE 2.2 × 10^4 in r14c3
T1 construct: also called BSA
Description: (§1) 1700 RUs of BSA (Sigma) were immobilized on research grade CM5-sensorchip (BIACORE). Ethanolamine blocked surface was used as a reference. Immobilizations were carried out at the protein concentrations of 50 μg/ml in 10 mM acetate pH4.5 using amine coupling kit supplied by the manufacturer. Antibodies were passed through Superdex 75 (GE Healthcare) column to separate monomer prior to BIACORE analysis.
(§2) In all instances, analyses were carried out at 25° C. in HBS-E buffer (10 mM HEPES, 150 mM NaCl and 3 mM EDTA, pH7.4) supplemented with 0.005% surfactant P20 at a flow rate of 20 ul/min. The surfaces were regenerated with 100 mM HCl (3 seconds). Data were analyzed with BIAevaluation 4.1 software.

[2] = target: T1, bovine serum albumin; assay: SPR (Biacore 3000), BSA immobilized on CM5, 1:1 model; SE 1.1 × 10^-8 in r14c5
Description: as §1, §2

[3] = target: T1, bovine serum albumin; assay: SPR (Biacore 3000), BSA immobilized on CM5, 1:1 model; SE 5.4 × 10^-3 in r14c4
Description: as §1, §2

[4] = target: T1, bovine serum albumin; assay: SPR (Biacore 3000), BSA immobilized on CM5
[5] = target: T1, bovine serum albumin; assay: SPR (Biacore 3000), BSA immobilized on CM5, extended dissociation
[6] = target: T1, bovine serum albumin; assay: SPR (Biacore 3000), BSA immobilized on CM5, calculated from ka and kd
[7] = target: T1, bovine serum albumin; assay: SPR (Biacore 3000), BSA immobilized on CM5, 1:1 model; SE 3.2 × 10^3 in r12c3
[8] = target: T1, bovine serum albumin; assay: SPR (Biacore 3000), BSA immobilized on CM5, 4 h dissociation time; SE 3 × 10^-8 in r12c4
[9] = target: T1, bovine serum albumin; assay: SPR (Biacore 3000), BSA immobilized on CM5; estimated, no 1:1 fit
Description: as §1, §2

[10] = target: T1, bovine serum albumin; assay: SPR (Biacore 3000), BSA immobilized on CM5; profiles did not fit a 1:1 model
Description: as §1, §2

T1 sequence (P02769 25-607 limits assumed): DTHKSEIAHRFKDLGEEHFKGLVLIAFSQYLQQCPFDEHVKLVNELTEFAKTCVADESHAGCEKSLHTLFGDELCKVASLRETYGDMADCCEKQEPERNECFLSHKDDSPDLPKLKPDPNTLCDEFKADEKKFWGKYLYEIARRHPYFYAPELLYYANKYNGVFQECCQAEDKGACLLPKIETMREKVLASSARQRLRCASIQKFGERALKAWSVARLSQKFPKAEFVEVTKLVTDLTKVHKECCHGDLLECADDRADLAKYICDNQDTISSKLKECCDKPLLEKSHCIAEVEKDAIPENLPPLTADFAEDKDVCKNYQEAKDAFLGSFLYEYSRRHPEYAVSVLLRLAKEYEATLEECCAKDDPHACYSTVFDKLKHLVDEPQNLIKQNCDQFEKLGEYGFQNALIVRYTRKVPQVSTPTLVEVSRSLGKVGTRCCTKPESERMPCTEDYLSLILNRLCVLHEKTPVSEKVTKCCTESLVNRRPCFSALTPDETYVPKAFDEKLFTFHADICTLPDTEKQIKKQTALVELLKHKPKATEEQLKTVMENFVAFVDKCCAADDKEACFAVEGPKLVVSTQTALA

B1: sdAb BSA16 (VHH)
VHH: QVKLEESGGGLVQAGGSLRLSCAPSGRTFRTWRMGWFRQAPGKEREFVAAINLNTGNTYYVDSVKGRFTISGDYAKNTLYLQMNSLKPEDTAVYFCAARSPDSDYVPLSSIDYQYWGQGTQVTVSS
Which results are given for B1?
kon [1]: 1e+06 M⁻¹ s⁻¹; Kd [2]: 280 nM; koff [3]: 0.27 s⁻¹

B2: sdAb BSA12 (VHH, part only)
VHH: QVKLEESGGGLVQVGDSLRLSCAASGRTFSNYTMAWFRQFPGKEREFVAVVSRGGGATDYADSVKGRFTISRDNAKNTMYLQMNSLKTDTAVYYCAAGTDLSYYYSTKKWAYWGQGTQVTVSS
modifications: c-Myc and 6xHis tags
How did the binding capacity (RU) [4] turn out when B2 was run?
Its binding capacity (RU) is 150 RU.

What about the koff [5] of the same binder?
The koff was 1e-05 s⁻¹.

What about the Kd [6] of the same binder?
Its Kd is 0.004 nM.

What about the kon [7] of the same binder?
The kon was 2.5e+06 M⁻¹ s⁻¹.

And the koff [8]?
Its koff is 9e-06 s⁻¹.

B3: sdAb BSA8 (VHH)
VHH: QVKLEESGGGLAQAGGSLRLSCAASERTFIRYTIGWFRQAPGKEREFVGRVNWSGGDTYYADSVKGRFTISRDNAKTTVTLQMSSLKPEDTAVYSCAASPKWSEIPREYIYWGPGTQVTVSS
For B3, which Kd [9] is on record?
Its Kd is ~100 nM.

And the koff [10]?
Its koff is 0.005 s⁻¹.
